From patent US9347942B2, “Ultrasensitive cell based sensors and uses thereof” (CANVAX BIOTECH SL, priority 2010, dated 2016) come the findings set out here.

Common to all, as to type: cell-based, Rat
Test [1] has as its system anti-TNP IgE labelled RBL2H3-hGB cells. Put plainly: IgE-allergen sensor, granzyme B release (Example 16). Particulars: substrate 1 uM. An excerpt: This example describes the use of the sensor for testing modulators of mast cells granule exocytosis widely used to find novel anti-allergic compounds as illustrated in FIG. 1. RBL2H3 were stably transfected with human granzyme B under the control of hCMV-MoLV5′LTR chimeric promoter as described in example 3. A mouse IgE monoclonal antibody against trinitrophenyl hapten was purified from IgELb4 hybridoma purchased from ATCC (TIB-141). TNP-N-hydroxysuccinimide esther was purchased from Biosearch Technologies Inc and conjugated to bovine serum albumin (BSA) using a standard protocol. Conjugation was determined at pH 7.0 by measuring TNP absorbance at 348 nm using 15400 units per mol per 10 mm light pass length as the extinction coefficient of TNP. Molar ratio of TNP to BSA in the TNP-BSA conjugate was calculated assuming the molecular weight of BSA is 60000. Sensor cells were cultivated as adherent cells for 48 hours in 6 well plates and then washed with HBSS and harvested by pippeting. 500.000 cells were labelled with anti-TNP IgE at 1 ug/ml_in HBSS for 60 minutes at 37 Celsius degrees, washed with 10 mL of HBSS, centrifuged and pellet was resuspended in 1 mL of HBSS. In a black wall 384 well plate 10 uL of serial dilutions of TNP-BSA in HBSS were added each containing the FRET-based granzyme B substrate FAM-[…]TAMRA (FAM-[…]-TAMRA) at 1 uM final concentration whose cleavage was detected by fluorescence using excitation at 485 nm and emission at 535 nm. Dilutions of TNP-BSA tested were: 1 ug/mL, 1 ng/mL, 1 pg/mL and 1 fg/mL. To each well 10 uL (5000 cells) of anti-TNP IgE labelled cells were added and plates were incubated at 37 Celsius degrees in a BMG-Labtech microplate fluorimeter. Microplate was read at 0, 15, 30, 45 and 60 minutes. The following controls were included: (1) wells with anti-TNP IgE labelled cells plus granzyme B substrate but without TNP-BSA; (2) wells with non-labelled cells plus granzyme B substrate and TNP-BSA at 1 ug/ml_; (3) wells with granzyme B substrate and TNP-BSA at 1 ug/ml_but no cells. Each well was included by triplicate.

For test [2], the system named is RBL-2H3 cells. Put plainly: Activity of granule stored protease reporters released by ionomycin, transient transfection (Example 4). Particulars: transiently transfected RBL-2H3, 650.000 cells, 10 uM ionomycin 1 hour, supernatant. The source says:
Vectors were developed to express human granzyme A, M, H and K and human neutrophil elastase, human chymase, human cathepsin G and human proteinase 3 under the control of hCMV-MoMLV5′LTR chimeric promoter and RBL-2H3 cells were individually transfected by electroporation using a microporator (Gentelbio, South Korea) with the above plasmids and also with human granzyme B plasmid as control and with cytosolically truncated hNGFR receptor as a surface tag for determination of the percentage of transfection by flow cytometry with a anti-hNGFR monoclonal antibody conjugated to FITC (Miltenyi Biotec, Germany). After 48 hours cells were harvested by pipetting, washed with HBSS buffer and counted. 650.000 cells in 200 microliters of HBSS buffer were treated in suspension with 10 uM ionomycin for 1 hour and after centrifugation at 400 g for 5 minutes the supernatants were analysed for activity with specific fluorescent substrates. Controls of cells incubated with HBSS buffer only were included. Fluorescent substrates were specific tetrapeptides conjugated to 7-Amido-4-Methylcoumarin (AMC) and were custom synthesized by a custom peptide supplier. Specific substrates were: VANR-AMC for granzyme A; KVPL-AMC for granzyme M; PTSY-AMC for granzyme H; YRFK-AMC for granzyme K; PEEI-AMC for human neutrophil elastase; PTSY-AMC for human chymase; PTSY-AMC for human cathepsin G; VADC-AMC for human proteinase 3 and IEPD-AMC for human granzyme B. Released AMC was measured by excitation at 360 nm and emission at 460 nm in a BMG Labtech microplate fluorimeter in 96 well microplates using 125 microliters of supernatant and 125 microliters of specific substrate at 400 micromol per liter in HBSS buffer. Microplates were incubated at 37 Celsius degrees on the reader and were kinetically read at 0, 15, 30, 45 and 60 minutes. Percentage of transient electroporation measured using truncated hNGFR tag and anti-hNGFR-FITC antibody was about 60 percent.

Test [3] has as its system RBL-2H3 cells. Briefly: Ionomycin-induced release of granule stored protease reporters from stable cell lines (Example 5). Particulars: stable RBL-2H3, 10 uM ionomycin 1 hour, supernatant equivalent to 100.000 cells, AMC substrate. The source says:
As either tryptase-like enzymes, chymase-like enzymes, elastase-like enzymes or asp-ase like enzymes are useful for the methods of the present invention we selected human granzyme A (tryptase-like enzyme); human granzyme B (Asp-ase-like enzyme); human chymase (chymase-like enzyme) and human proteinase 3 (elastase-like enzyme) for further examples. Vectors were developed for stable expression of human granzyme A, human granzyme B, human chymase and human proteinase 3 under the control of hCMV-MoMLV5′LTR chimeric promoter. A hygromycin resistance cassette was included in the vector backbone for selection of stable populations of cells. The vector also included an IRES-NGFR cassette cloned downstream of granule stored protease reporter and thus, under the control of hCMV-MoMLV5′LTR promoter for flow cytometry and/or selection by MACS of stable cells expressing either human granzyme A or human granzyme B or human chymase or human proteinase 3. Each vector was individually electroporated using a microporator (Digital Bio Technology, South Korea) into RBL-2H3 and after 48 hours hygromycin at 1500 ug/mL was added to culture for selection. After selection for about 2 weeks cells were analysed by flow cytometry (Guava Technologies, USA) with an antibody against NGFR coupled to FITC. Positive population where magnetically separated by MACS using anti-NGFR-MACS sup.R (Miltenyi Biotec, Germany). Sorted populations were again analysed again by flow cytometry to check the sorting efficiency. Percentage of NGFR positive cells was always higher than 65 percent. Cells were seeded the night before experiment in 24 well microplates at 650.000 cells per well in 800 microliters of complete cell culture medium. Next day cells were washed with HBSS buffer and were treated with 10 uM ionomycin for 1 hour at 37 Celsius degrees in 200 uL of HBSS buffer and after centrifugation at 400 g for 5 minutes supernatants were analysed for activity with specific fluorescent substrates. Controls of cells incubated with HBSS buffer only were included. Fluorescent substrates were: VANR-AMC for granzyme A; PEEI-AMC for human neutrophil elastase; PTSY-AMC for human chymase; VADC-AMC for human proteinase 3 and IEPD-AMC for human granzyme B. Released AMC was measured by excitation at 360 nm and emission at 460 nm in a BMG Labtech microplate fluorimeter in 96 well microplates using 125 microliters of supernatant and 125 microliters of specific substrate at 400 micromol per liter in HBSS buffer. Microplates were incubated at 37 Celsius degrees on the reader and were kinetically read at 0, 15, 30, 45 and 60 minutes. Control wells with substrate only in HBSS buffer were included to subtract autofluorescence of substrates to both cells treated with ionomycin and to cells treated with HBSS buffer only. Autofluorescence of peptide substrates in HBSS buffer was about 3000 while fluorescence of cells treated with HBSS buffer only for 60 minutes at 37 Celsius degrees was about 5000, that is basal release in the absence of exocytosis modulator was about 2000. In contrast, fluorescence of ionomycin-induced release of human granzymes A and B was about 20.000 for a signal to background of 10 when using the supernatant equivalent to 100.000 cells; fluorescence of ionomycin-induced release of human chymase was about 30.000 for a signal to background of 15 when using the supernatant equivalent to 100.000 cells and fluorescence of ionomycin-induced release of human proteinase 3 was about 12.000 for a signal to background of 6 when using the supernatant equivalent to 100.000 cells. Thus, tryptase-like enzymes, chymase-like enzymes, elastase-like enzymes or asp-ase like enzymes can be stably expressed into granules of hemopoyetic cells with professional regulated exocytosis and such granule stored proteases are released by exocytosis modulators to produce sensors with good signal to background ratios using specific AMC-coupled peptide substrates. […]

Consider “TNP-BSA: trinitrophenyl hapten conjugated to bovine serum albumin, model allergen”, for which the “Fluorescence after 30 minutes at 37° C.” value was 35884 in test [1] (TNP-BSA 1 pg/mL, 5000 cells with anti-TNP IgE); 34556 in test [1] (TNP-BSA 1 ng/mL, 5000 cells with anti-TNP IgE); 30942 in test [1] (TNP-BSA 1 ug/mL, 5000 cells with anti-TNP IgE); 2935 in test [1] (TNP-BSA 1 ug/mL, 5000 cells without anti-TNP IgE (non-labelled)); 29826 in test [1] (TNP-BSA 1 fg/mL, 5000 cells with anti-TNP IgE).

B1: human proteinase 3: Elastase-like serine protease (PRTN3, NM_002777) used as granule stored reporter (protein, UniProt P24158 28-248, looked up)
Myeloblastin: IVGGHEAQPHSRPYMASLQMRGNPGSHFCGGTLIHPSFVLTAAHCLRDIPQRLVNVVLGAHNVRTQEPTQQHFSVAQVFLNNYDAENKLNDVLLIQLSSPANLSASVATVQLPQQDQPVPHGTQCLAMGWGRVGAHDPPAQVLQELNVTVVTFFCRPHNICTFVPRRKAGICFGDSGGPLICDGIIQGIDSFVIWGCATRLFPDFFTRVALYVDWIRSTLR
B1: the “enzymatic activity of released reporter with specific AMC substrate” value (from here on “enzymatic activity of released reporter”) with RBL-2H3 cells [2] is on record as “equivalent activity that was higher than that of human granzyme M”. Moreover, in the test on RBL-2H3 cells [3], the “fluorescence of ionomycin-induced release” value is “about 12.000” and the signal to background worked out at 6.

B2: human chymase: Chymase-like serine protease (CMA1, NM_001836) used as granule stored reporter (protein, UniProt P23946 22-247, looked up)
Chymase: IIGGTECKPHSRPYMAYLEIVTSNGPSKFCGGFLIRRNFVLTAAHCAGRSITVTLGAHNITEEEDTWQKLEVIKQFRHPKYNTSTLHHDIMLLKLKEKASLTLAVGTLPFPSQFNFVPPGRMCRVAGWGRTGVLKPGSDTLQEVKLRLMDPQACSHFRDFDHNLQLCVGNPRKTKSAFKGDSGGPLLCAGVAQGIVSYGRSDAKPPAVFTRISHYRPWINQILQAN
Consider B2, for which the “enzymatic activity of released reporter” value with RBL-2H3 cells [2] is given as “highest activity”. In the test with RBL-2H3 cells [3], the “fluorescence of ionomycin-induced release” value is “about 30.000” and the signal to background was found to be 15.

B3: neutrophil elastase: Elastase-like serine protease (ELA2, NM_001972) used as granule stored reporter (protein, UniProt P08246 30-267, looked up)
Neutrophil elastase: IVGGRRARPHAWPFMVSLQLRGGHFCGATLIAPNFVMSAAHCVANVNVRAVRVVLGAHNLSRREPTRQVFAVQRIFENGYDPVNLLNDIVILQLNGSATINANVQVAQLPAQGRRLGNGVQCLAMGWGLLGRNRGIASVLQELNVTVVTSLCRRSNVCTLVRGRQAGVCFGDSGSPLVCNGLIHGIASFVRGGCASGLYPDAFAPVAQFVNWIDSIIQRSEDNPCPHPRDPDPASRTH
Consider B3, for which the “enzymatic activity of released reporter” value in the test with RBL-2H3 cells [2] was “equivalent activity that was higher than that of human granzyme M”.

B4: human granzyme A: Tryptase-like serine protease (GZMA, NM_006144) used as granule stored reporter (protein, UniProt P12544 29-262, looked up)
Granzyme A: IIGGNEVTPHSRPYMVLLSLDRKTICAGALIAKDWVLTAAHCNLNKRSQVILGAHSITREEPTKQIMLVKKEFPYPCYDPATREGDLKLLQLMEKAKINKYVTILHLPKKGDDVKPGTMCQVAGWGRTHNSASWSDTLREVNITIIDRKVCNDRNHYNFNPVIGMNMVCAGSLRGGRDSCNGDSGSPLLCEGVFRGVTSFGLENKCGDPRGPGVYILLSKKHLNWIIMTIKGAV
With B4, in the test on RBL-2H3 cells [2], the “enzymatic activity of released reporter” value is recorded as “higher activity than granzyme K”. In addition, in the test with RBL-2H3 cells [3], the “fluorescence of ionomycin-induced release” value was “about 20.000” and the signal to background is 10.
